In PMC8624677 (The Journal of Cell Biology, 2021):
Changes are numbered by the printed parent chain. Numbers in names are those of the source.

B1: cyt-ATL1(1–446) N281C (domain or fragment, human, UniProt Q8WXF7 1-446, looked up)
chain: MAKNRRDRNSWGGFSEKTYEWSSEEEEPVKKAGPVQVLIVKDDHSFELDETALNRILLSEAVRDKEVVAVSVAGAFRKGKSFLMDFMLRYMYNQESVDWVGDYNEPLTGFSWRGGSERETTGIQIWSEIFLINKPDGKKVAVLLMDTQGTFDSQSTLRDSATVFALSTMISSIQVYNLSQNVQEDDLQHLQLFTEYGRLAMEETFLKPFQSLIFLVRDWSFPYEFSYGADGGAKFLEKRLKVSGNQHEELQNVRKHIHSCFTNISCFLLPHPGLKVATNPCFDGKLKEIDDEFIKNLKILIPWLLSPESLDIKEINGNKITCRGLVEYFKAYIKIYQGEELPHPKSMLQATAEANNLAAVATAKDTYNKKMEEICGGDKPFLAPNDLQTKHLQLKEESVKLFRGVKKMGGEEFSRRYLQQLESEIDELYIQYIKHNDSKNIFHAAR
modifications: Alexa Fluor 488 (donor) or 647 (acceptor) maleimide on the engineered G-domain cysteine N281C
B2: cyt-ATL1 H435C (domain or fragment, human, UniProt Q8WXF7 1-446, looked up)
chain: B1 chain with C281N, H435C
modifications: Cy3 maleimide on the engineered 3HB cysteine H435C
B3: cyt-ATL2(1–467) S308C (also C59A, C143A, C395N, and C441A) (domain or fragment, human, UniProt Q8NHH9 1-467, looked up)
chain: MAEGDEAARGQQPHQGLWRRRRTSDPSAAVNHVSSTTSLGENYEDDDLVNSDEVMKKPAPVQIVLAHEDDHNFELDEEALEQILLQEHIRDLNIVVVSVAGAFRKGKSFLLDFMLRYMYNKDSQSWIGGNNEPLTGFTWRGGAERETTGIQVWNEVFVIDRPNGTKVAVLLMDTQGAFDSQSTIKDCATVFALSTMTSSVQVYNLSQNIQEDDLQHLQLFTEYGRLAMEEIYQKPFQTLMFLIRDWSYPYEHSYGLEGGKQFLEKRLQVKQNQHEELQNVRKHIHNCFSNLGCFLLPHPGLKVATNPCFDGRLKDIDEDFKRELRNLVPLLLAPENLVEKEISGSKVTCRDLVEYFKAYIKIYQGEELPHPKSMLQATAEANNLAAVAGARDTYNKSMEQVCGGDKPYIAPSDLERKHLDLKEVAIKQFRSVKKMGGDEFARRYQDQLEAEIEETYANFIKHNDGKN
modifications: Alexa Fluor 488 (donor) or 647 (acceptor) maleimide on the engineered G-domain cysteine S308C
B4: cyt-ATL2 H462C (also C59A, C143A, C395N, and C441A) (domain or fragment, human, UniProt Q8NHH9 1-467, looked up)
chain: B3 chain with C308S, H462C
modifications: Cy3 maleimide on the engineered 3HB cysteine H462C
B5: cyt-DATL(1–415) S270C (domain or fragment)
chain: MGGSAVQVINASEEHTFVLNEDALSEVLMRDEVKDRFVCVVSVAGAFRKGKSFLLDFFLRYMYSKYVHHDATDWLGGESDPLEGFSWRGGSERDTTGILMWSDIFLHDYPNGDKIAIILLDTQGAFDSQSTVRDCATVFALSTMLSSVQIYNLSQNIQEDDLQHLQLFTEYGRLALADTGKKPFQRLQFLVRDWSFPYEAEYGALGGDKILKRRLEVSDKQHPELQSLRRHISSCFTEVACFLMPHPGLNVATNPKFDGRLQDITPEFKCSLRSLVPMLLAPDNLVYKEISGQRVRARDLIQYFQSYMNIYKGNELPEPKSMLVATAEANHLTAVAAAKELYGQLMEEVCGGTRPYLSTAHLQTEHLRVKDKALFQFAAKRKMGGEEFTEKFRKQLEDDLEEVFTNYQAHNESKN
modifications: Alexa Fluor 488 (donor) or 647 (acceptor) maleimide on the engineered G-domain cysteine S270C
B6: cyt-DATL H410C (domain or fragment)
chain: B5 chain with C270S, H410C
modifications: Cy3 maleimide on the engineered 3HB cysteine H410C

Tests used:
FRET or BRET = biological target: the molecule itself; assay: FRET or BRET
PIFE = biological target: the molecule itself; assay: PIFE

Row | Protein | binding result (FRET or BRET) | binding result (PIFE)
1 | B1 | binds | 
2 | B2 |  | binds
3 | B3 | binds | 
4 | B4 |  | binds
5 | B5 | binds | 
6 | B6 |  | binds
